The values below come from publication doi:10.1101/2025.07.16.665153.

In this experiment the target is endogenous MpUVR8 of Marchantia polymorpha (Marchantia polymorpha (endogenous in Tak-1 gemmalings)). Nature of the experiment: cross-linking.

In general, stoichiometry N refers to the number of molecules, sites or subunits per partner or assembly.

The substance “endogenous MpUVR8 of Marchantia polymorpha (natural protein)” showed a stoichiometry N of 2.
